The values that follow come from patent US20110293610A1 (published 2011).

Assay [1] deals with T1, B Lymphocyte Stimulator, soluble form (human) (human, UniProt Q9Y275 134-285, biotinylated with NHS-biotin where used as biotinylated B Lymphocyte Stimulator).
T1 construct: Coated on plastic, captured on streptavidin plates, amine-coupled to a CM5 chip or free in solution, depending on the assay; also called BLyS; immobilized B Lymphocyte Stimulator
As to the kind of experiment: phage ELISA.

For assay [2], the target named is T2, membrane-bound B Lymphocyte Stimulator on U937 plasma membrane preparations (human, UniProt Q9Y275 1-285).
T2 construct: Natural protein in plasma membrane fractions of the human cell line U937 coated on ELISA plates; also called U937 plasma membranes; U937 membranes
As to the kind of experiment: phage ELISA. Background: An ELISA detects its analyte on a solid surface through an enzyme-linked reagent.

The target in assay [3] is T3, HIS-tagged B Lymphocyte Stimulator (human, UniProt Q9Y275 71-285).
T3 construct: Expressed in E. coli from pQE9 and purified; also called histidine-tagged B Lymphocyte Stimulator; HIS-B Lymphocyte Stimulator; not shown: histidine tag of the pQE9 vector
As to the kind of experiment: phage ELISA.

For assay [4], the target named is T1, B Lymphocyte Stimulator, soluble form …. As to the kind of experiment: BIAcore 2000, purified scFv over low density (500 RU) BLyS surface. In general terms: SPR reads the build-up and loss of mass on a sensor chip optically.
The target in assay [5] is T4, biotinylated B Lymphocyte Stimulator, soluble form (human, UniProt Q9Y275 134-285, biotinylated with NHS-biotin, molar ratio 20:1 biotin:protein).
T4 construct: also called bio-B Lymphocyte Stimulator; free B Lymphocyte Stimulator
The experiment in a line: purified scFv, receptor binding inhibition on IM9 cells.

For assay [6], the target named is T3, HIS-tagged B Lymphocyte Stimulator. As to the kind of experiment: BIAcore, purified scFv over low density (500 RU) HIS-BLyS surface. The method, then:
The chip containing the low density HIS-B Lymphocyte Stimulator surface was inserted into the BIAcore. […] The dilution series was then injected sequentially over the blank control (flow cell 1) and low density HIS-B Lymphocyte Stimulator surface (flow cell 2) using the following program: […]

The target of assay [7] is T1, B Lymphocyte Stimulator, soluble form …. The experiment in a line: cell-based or functional assay.
For assay [8] the target is unchanged. As to the kind of experiment: BIAcore, IgG1 captured on low-density Protein A surface, BLyS passed over. The method, then: Briefly, antibodies were captured on low-density Protein A surfaces and B Lymphocyte Stimulator was passed over at various flow rates. The binding of B Lymphocyte Stimulator to immobilized antibody was detected by changes in […] that were proportional to the amount of bound B Lymphocyte Stimulator. Binding values were calculated using software provided by the manufacturer.

Assay [9] addresses LIGHT (human, UniProt O43557 74-240, limits assumed). As to the kind of experiment: phage ELISA.
In assay [10] the target is T5, Bovine serum albumin (bovine, UniProt P02769 25-607).
T5 construct: also called BSA
T5 sequence (P02769 25-607 limits assumed): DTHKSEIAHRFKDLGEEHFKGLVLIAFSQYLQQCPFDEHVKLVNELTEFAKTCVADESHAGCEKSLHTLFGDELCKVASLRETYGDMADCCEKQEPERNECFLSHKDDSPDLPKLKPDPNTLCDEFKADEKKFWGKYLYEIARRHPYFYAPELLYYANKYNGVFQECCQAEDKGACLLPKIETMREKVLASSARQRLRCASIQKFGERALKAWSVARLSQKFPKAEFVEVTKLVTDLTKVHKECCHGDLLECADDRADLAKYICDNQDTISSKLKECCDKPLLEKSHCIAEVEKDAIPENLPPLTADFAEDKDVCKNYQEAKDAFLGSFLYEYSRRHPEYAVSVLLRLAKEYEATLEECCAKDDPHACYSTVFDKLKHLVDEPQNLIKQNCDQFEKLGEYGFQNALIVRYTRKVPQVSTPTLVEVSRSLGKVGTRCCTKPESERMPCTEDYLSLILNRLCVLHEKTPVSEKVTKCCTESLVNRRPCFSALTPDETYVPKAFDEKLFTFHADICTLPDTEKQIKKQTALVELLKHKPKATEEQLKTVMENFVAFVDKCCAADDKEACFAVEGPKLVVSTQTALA
The experiment in a line: phage ELISA.

In assay [11] the target is T6, TNF-alpha (human, UniProt P01375 77-233).
T6 construct: also called TNFα; TNF-α
T6 sequence (P01375 77-233 limits assumed): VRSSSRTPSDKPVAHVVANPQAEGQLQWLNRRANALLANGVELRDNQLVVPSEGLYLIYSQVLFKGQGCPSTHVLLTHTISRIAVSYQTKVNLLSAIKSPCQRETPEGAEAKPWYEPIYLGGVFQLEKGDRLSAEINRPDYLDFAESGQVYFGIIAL
The experiment in a line: phage ELISA.

The target in assay [12] is T7, TNF-beta (human, UniProt P01374 35-205).
T7 construct: also called TNFβ; Tumour Necrosis Factor-beta
T7 sequence (looked up): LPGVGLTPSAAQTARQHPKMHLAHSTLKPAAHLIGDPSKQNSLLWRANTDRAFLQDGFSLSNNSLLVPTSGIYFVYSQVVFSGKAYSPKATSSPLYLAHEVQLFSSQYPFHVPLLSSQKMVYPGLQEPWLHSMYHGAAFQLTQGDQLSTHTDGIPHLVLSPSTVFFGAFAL
The experiment in a line: phage ELISA.

Assay [13] addresses T8, TRAIL (human, UniProt P50591 114-281).
T8 construct: also called TNF-related apoptosis inducing ligand
The experiment in a line: phage ELISA.

Assay [14] addresses T1, B Lymphocyte Stimulator, soluble form …. The experiment in a line: phage ELISA, biotinylated BLyS on streptavidin plates.

T8 sequence (P50591 114-281 limits assumed): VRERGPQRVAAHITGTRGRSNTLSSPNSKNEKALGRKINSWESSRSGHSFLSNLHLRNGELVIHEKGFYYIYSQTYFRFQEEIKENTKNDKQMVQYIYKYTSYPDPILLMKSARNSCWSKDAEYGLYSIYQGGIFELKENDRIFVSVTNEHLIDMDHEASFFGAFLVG
LIGHT, sequence (O43557 74-240 limits assumed): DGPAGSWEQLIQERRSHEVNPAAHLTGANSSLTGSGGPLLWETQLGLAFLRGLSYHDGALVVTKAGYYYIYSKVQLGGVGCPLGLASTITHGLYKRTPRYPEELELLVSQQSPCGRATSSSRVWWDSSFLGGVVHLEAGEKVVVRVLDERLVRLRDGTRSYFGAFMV

B1: I082A02 (scFv)
scFv: QVQLVQSGAEVKEPGASVKISCEASGYTFTNNFIDWVRQAPGQGLEWMGTISGSTGNTYYKQGFQGRVTMTRDTATSTAYLEVRGLTSEDTAIYFCARPAASSRGPKDAFDIWGQGTLVTVSSGGGGSGGGGSGGGGSQSVLTQPPSVSAAPGQKVTISCSGSTSNIGNNYVSWYQQHPGKAPKLMIYDVSKRPSGVPDRFSGSKSGNSASLDISGLQSEDEADYYCAAWDDSLSEFLFGTGTKLTVLG
Consider B1, for which the binding result in assay [1] was “no binding”; in assay [2], “binds”; in [3], “binds”.

B2: I003C02 (scFv)
scFv: EVQLVQSGAEVKKPGSSVKVSCQASGGNFNSYGVSWVRQAPGQGLEWMGRIIPNVGTANYAQKFQGRVTITADKLTSTVYLEVRSLRSEDTAVYYCARGDYDILTGYPAECFQIWGQGTMVTVSSGGGGSGGGGSGGGGSAQAVLTQPSSASGTPGQRVTISCSGSTSNIGTNTVNWYQQLPGTAPKLLIYSNHLRPSGVPDRFSGSKSGTSASLAISGLQSEDEADYYCSARDDSLNGVVFGGGTKVTVLG
Take B2: in assay [4], the koff came to 0.006 s⁻¹.

B3: I003F12S (scFv)
scFv: QVQLLQSAAELKKPGQSLKISCKGSGFTFTTYWIGWVRQLPGKGLEWMGIIYPGDSHTTYSPSFEGHVNISVDKSINTAYLQWSSLKASDTAMYYCARHDDDVLTGYYFESWGQGTMVTVSSGGGGSGGGGSGGGGSQSVLTQPASVSGSPGQSITISCTGTSSDVGGYNYVSWYQQHPGKAPKLMIYEGSKRPSGVSNRFSGSKSGNTASLTISGLQAEDEADYYCSSYTTRSTRVFGGGTKLTVLG
Turning to B3, the binding result in assay [5] was “binds”.

B4: I082C03 (scFv)
scFv: QVQLVQSGSEVKKPGASVKVSCKTSGYSFTGYFIHWVRQAPGQGLEWMGWINPNSGGTNLAQKFQGRVTMTRDTSISTAYMELSSLKSDDTAVYYCARDASRDIVVLPLAIWGKGTLVTVSSGGGGSGGGGSGGGGSDIQMTQSPSTLSASIGDRVTITCRASEGIYHWLAWYQQKPGKAPKLLIYKASSLASGAPSRFSGSGSGTDFTLTISSLQPDDFATYYCQQYSNYPLTFGGGTKLEIKR
For the molecule B4, in assay [6], binding was put at a Kd of 20 nM and the off-rate (koff) came to 0.002 s⁻¹.

B5: I079C01 (scFv)
scFv: EVQLVESGGGLVQPGGSLRLSCAASGFTFSDYGMHWVRQRPGKGLEWIAFIGSDGSNKYYGDTVKGRFTISRDNAKNSLYLQMNSLRAEGTAVYYCARDWDMDVWGQGTMVTVSSGGGGSGGGGSGGGGSHVILTQPRSVSGSPGQSVTISCTGTSSDVGGYHYVSWYQQHPGKAPRLMIYEVTKRPSGVSNRFSGSKSGNTASLTISGVQAEDEADYYCSSYTSASTVIFGGGTKLTVLG
B5: the binding result in [1] is “no binding”; in assay [2], “binds”; in assay [3], “binds”.

B6: I006D08 (whole IgG1) (antibody, V domains shown)
VH: QVQLQQSGAEVKKPGSSVRVSCKASGGTFNNNAINWVRQAPGQGLEWMGGIIPMFGTAKYSQNFQGRVAITADESTSTASMELSSLRSEDTAVYYCARSRDLLLFPHYGMDVWGRGTMVTVSS
VL: SSELTQDPAVSVALGQTVRVTCQGDSLRSYYASWYQQKPGQAPVLVIYGKNNRPSGIPDRFSGSSSGNTASLTITGAQAEDEADYYCNSRDSSGNHWVFGGGTELTVLG
notes: constant regions (human IgG1)
With B6, the “IC50 for the inhibition of human B Lymphocyte Stimulator induced-proliferation of murine B cells (3H-thymidine incorporation)” value in [7] is 0.09 nM. In addition, in assay [8], the “fold higher Kd than I116A01” value was ~2 fold and the “fold higher off rate (kd) than I116A01” value is 2 fold.

B7: I075F12 (scFv)
scFv: QVQLVQSGAEVKKPGSSVKVSCKASGGTVSSRTISWVRQAPGQGLEWMGGSLPPSGAPIYAQKFQGRVAITADALTNTAFMELRSLKSDDTAVYYCARDQGRYLDLWGQGTMVTVSSGGGGSGGGGSGGGGSAQAVLTQPSSASGTPGQRATISCSGSSSDIGINAVNWYKQLPRTAPKLLIYRNNQRPSGVPDRFSGSKSGTSASLAIIGLQSEDEADYYCATWDDSLTAYVFGTGTKVTVLG
As for B7, the binding result in assay [9] was “no binding”; in assay [10], “no binding”; in assay [11] it was “no binding”; in assay [12], “no binding”; in assay [13] it was “no binding”; in [14], “binds”.

By koff is commonly meant the first-order rate constant of dissociation. Low values mean slow dissociation, high ones fast dissociation. As a reminder, the Kd is a measure of binding affinity in units of concentration. A high value points to a looser complex.
